Measured values as given in paper PMC2566859 (Nucleic Acids Research, 2008).

B1: TM1768, large subunit of Thermotoga maritima Exonuclease VII (XseA homolog) (enzyme, UniProt Q9X289 1-394, looked up)
chain: MKDYTYSVTEINEYIKDLIEGDPYLTNVSVYGEISGVRPRKGHIFFSLVEENARLECVIFGGDNMGIRLQEGRMALVEGSVSVYIPHGTYRFICSNVRYLDQAGMYQIKFETTLKKLLEEGLLSRPKKTVPRFPRKIGIITSRDSAALQDVIRTARERKAPIEIYVFHTSVQGDSAREELIKALRKANEYDLDLVMIVRGGGSKEDLWVFNEEDVIREILRLRHPVVTGIGHEIDRVIADFVADVSMHTPTGAAEYVIPDASEIHEDLDSFFEKLITSLSNRFDMEERRLETLYFRLRMIGRRKLELNEFKIERVKELAAKLRKKLMDYFEHNQKKLDSLGRMLESLNPLRPLERGFVLVKKDEKIVKESTDLKRGDVVSLVFKDGTKKAQVIG
B2: TM1769, small subunit of Thermotoga maritima Exonuclease VII (XseB homolog) (natural protein, UniProt Q9X290 1-75, looked up)
chain: MNFEEMMKELEEIVNRLENEDLPLEESIKLFERGVELYRKCKEILQQNRLKIIDVMKELEGEIDASGRDQENELR

How the values were obtained:
[1] = biological target: B2; assay: SEC
[2] = biological target: the molecule itself; assay: SEC

| stoichiometry N [1] | Binder | stoichiometry N [2] |
| --- | --- | --- |
| ~4 TM1769 per TM1768 | B1 | – |
| – | B2 | 4 |
